Like-named read-outs stand apart in the source and are kept apart here.
Key:
CaFADS [1] = conditions: 25 °C; for Kd: 20 mM PIPES pH 7.0
Description: Measurements were carried out using a high precision VP-ITC (MicroCal LLC, Northampton, MA, USA) following the procedure described previously. Typically, 200 μM FAD or FMN and 300 μM ATP solutions were used to titrate ~20 μM CaFADS. Ligand and CaFADS were dissolved in 20 mM PIPES, pH 7.0, at the indicated MgCl2 concentration. Control titrations were performed by injecting ligand into buffer solution. The association constant, the enthalpy change (ΔH) and the stoichiometry, or their average values, were obtained through non-linear regression of the experimental data to a home derived model for one or two independent binding sites implemented in Origin 7.0 (OriginLab Corporation, Northampton, MA, 2002) (see Supplementary Material). The Kd, the free energy change (ΔG), and the entropy change (ΔS) were obtained from basic thermodynamic relationships. Experiments were performed in duplicate or triplicate.
The association constant (Ka), the enthalpy change (ΔH) and the stoichiometry (N), or their average values, were obtained through non-linear regression of the experimental data to a model for one or two independent binding sites implemented in Origin 7.0 (OriginLab Corporation, Northampton, MA, USA, 2002).
The nominal protein concentration was normalised by a factor n (nP0, instead of P0) accounting for either the stoichiometry or the fraction of active (binding-competent) protein.

[2] = Thermal denaturation by differential scanning calorimetry (DSC); type: physicochemical; conditions: 20 mM PIPES, 10 mM MgCl2, pH 7.0
Description: Thermal stability was determined with a VP-DSC microcalorimeter (MicroCal LLC, Northampton, MA, USA). Protein samples and reference solutions were degassed and carefully loaded into the cells to avoid bubble formation. The baseline of the instrument was routinely recorded before the experiments with both cells filled with buffer. […] Errors in the Tm,app data are within ±0.3–0.5 °C.

CaFADS [3] = conditions: FADpp activity; 37 °C, 20 mM PIPES, 10 mM MgCl2, pH 7.0
Description: The CaFADS FMNAT and FADpp activities were fluorimetrically measured using a continuous assay. […] Measurements were performed in a Cary Eclipse spectrophotofluorimeter with excitation and emission wavelengths at 420 nm and 530 nm, respectively. FAD and FMN fluorescence were individually calibrated using standard solutions. The rate of FAD formation was calculated from the rate of fluorescence decrease (ΔF/Δt), measured as the tangent to the initial part of the experimental curve by applying the equation:
where ΔF is the decrease in the value of the fluorescence expressed in arbitrary units, Δt is the measurement of reaction time expressed in per minute, and KFMN and KFAD are the FMN and FAD fluorescent rate constants expressed in per micromolar [37]. The kinetic data obtained for one substrate at saturated concentrations of the second one were interpreted using the Michaelis-Menten kinetic model.

CaFADS [4] = target: T1, CaFADS (Corynebacterium ammoniagenes, UniProt Q59263); parameters: method as in PMID 22892871; conditions: FMNAT activity; 37 °C, 20 mM PIPES, 10 mM MgCl2, pH 7.0; cited from earlier work
T1 construct: made in house; host or cells: E. coli (pET28a-CaFADS plasmid)

CaFADS [5] = target: T1, CaFADS; conditions: RFK activity, cited from earlier work
[6] = ligand ATP, 10 mM Mg^2+, pH 7.0
[7] = ligand FAD, 10 mM Mg^2+, pH 7.0
[8] = ligand FMN, 10 mM Mg^2+, pH 7.0

B1: WT: wild-type FAD synthetase from Corynebacterium ammoniagenes (CaFADS), over-expressed in E. coli (protein)
chain: MDIWYGTAAVPKDLDNSAVTIGVFDGVHRGHQKLINATVEKAREVGAKAIMVTFDPHPVSVFLPRRAPLGITTLAERFALAESFGIDGVLVIDFTRELSGTSPEKYVEFLLEDTLHASHVVVGANFTFGENAAGTADSLRQICQSRLTVDVIDLLDDEGVRISSTTVREFLSEGDVARANWALGRHFYVTGPVVRGAGRGGKELGFPTANQYFHDTVALPADGVYAGWLTILPTEAPVSGNMEPEVAYAAAISVGTNPTFGDEQRSVESFVLDRDADLYGHDVKVEFVDHVRAMEKFDSVEQLLEVMAKDVQKTRTLLAQDVQAHKMAPETYFLQAES
For B1, which “ΔG FADS:ATP” value (CaFADS [1]; ligand ATP, 0 mM Mg^2+, pH 7.0) is on record?
Its value is -7.2 kcal/mol.

What about the “ΔH FADS:ATP” value (CaFADS [1]; ligand ATP, 0 mM Mg^2+, pH 7.0) of the same molecule?
Its value is -31 kcal/mol.

And the “−TΔS FADS:ATP” value (CaFADS [1]; ligand ATP, 0 mM Mg^2+, pH 7.0)?
Its value is 24 kcal/mol.

What about the “ΔG FADS:ATP” value (CaFADS [1]; [6]) of the same molecule?
The value was -6.2 kcal/mol.

What about the “ΔH FADS:ATP” value (CaFADS [1]; [6]) of the same molecule?
The value was -30 kcal/mol.

What about the “−TΔS FADS:ATP” value (CaFADS [1]; [6]) of the same molecule?
Its value is 23 kcal/mol.

What about the “ΔG FADS:FAD” value (CaFADS [1]; [7]) of the same molecule?
The value was -8.4 kcal/mol.

What about the “ΔH FADS:FAD” value (CaFADS [1]; [7]) of the same molecule?
The value was -26 kcal/mol.

And the “−TΔS FADS:FAD” value (CaFADS [1]; [7])?
The value was 18 kcal/mol.

And the “ΔG FADS:FMN” value (CaFADS [1]; [8])?
The value was -7.0 kcal/mol.

What about the “ΔH FADS:FMN” value (CaFADS [1]; [8]) of the same molecule?
The value was -35 kcal/mol.

And the “−TΔS FADS:FMN” value (CaFADS [1]; [8])?
The value was 28 kcal/mol.

And the Kd (CaFADS [1]; read-out: Kd FADS:ATP (average, Kd,av^ATP:Mg, for two ATP:Mg^2+ binding sites), ligand ATP, 10 mM Mg^2+)?
The Kd was 30 µM.

What about the Kd (CaFADS [1]; read-out: Kd FADS:ATP, ligand ATP, 0 mM Mg^2+) of the same molecule?
The Kd was 5.5 µM.

And the Kd (CaFADS [1]; read-out: Kd FADS:FAD, ligand FAD, 10 mM Mg^2+)?
Its Kd is 0.7 µM.

What about the Kd (CaFADS [1]; read-out: Kd FADS:FMN, ligand FMN, 10 mM Mg^2+) of the same molecule?
Its Kd is 7.8 µM.

And the “Tm,app” value [2]?
Its value is 42.5 °C.

And the kcat (CaFADS [3])?
Its kcat is 0.217 s⁻¹.

And the kcat (CaFADS [4])?
Its kcat is 0.283 s⁻¹.

And the “kcat (apparent)” value (CaFADS [5]; saturated ATP, varying RF, 37 °C, 0.8 mM MgCl2, pH 7.0)?
The value was 5.02 s⁻¹.

What about the “kcat (apparent)” value (CaFADS [5]; varying ATP, RF concentration exhibiting ~80% maximal activity) of the same molecule?
Its value is 1.13 s⁻¹.

From publication PMC3509593, “Role of Key Residues at the Flavin Mononucleotide (FMN):Adenylyltransferase Catalytic Site of the Bifunctional Riboflavin Kinase/Flavin Adenine Dinucleotide (FAD) Synthetase from Corynebacterium ammoniagenes” (International Journal of Molecular Sciences, 2012)
